# According to US12070483B2, “Compositions and methods for treatment of acute lung injury” (THE TRUSTEES OF THE UNIVERSITY OF PENNSYLVANIA, priority 2018, dated 2024):
# Legend:
# recombinant hPrdx6 = target: T1, recombinant hPrdx6 (Homo sapiens, UniProt P30041); experiment: aiPLA2 activity of recombinant human Prdx6 in presence of peptide; assay type: biochemical; details: for aiPLA2 activity of recombinant hPrdx6: Table 1, hPrdx6 only (no peptide) 93.4; for aiPLA2 activity of human recombinant Prdx6: Table 3, hPrdx6 only 99.91; for aiPLA2 activity of human recombinant protein: Table 2, hPrdx6 only 92.0
# T1 sequence (P30041 1-224): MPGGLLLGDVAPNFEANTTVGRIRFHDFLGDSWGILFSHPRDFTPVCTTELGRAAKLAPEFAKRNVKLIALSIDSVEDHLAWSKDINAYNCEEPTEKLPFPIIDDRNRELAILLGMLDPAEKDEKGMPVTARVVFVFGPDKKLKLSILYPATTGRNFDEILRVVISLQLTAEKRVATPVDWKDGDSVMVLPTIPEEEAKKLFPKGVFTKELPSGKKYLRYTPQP
# NOX2 = experiment: ROS production (Amplex red) of isolated perfused mouse lung stimulated with angiotensin II; assay type: in vivo; details: mouse, ex_vivo
# Method: FIGS. 5A and 5B: PIP-2, incorporated within liposomes, was instilled intratracheally prior to lung isolation. FIG. 5A: Isolated lungs were perfused in a recirculating system with artificial medium. NOX2 activity was stimulated by addition of angiotensin II (Ang II). Amplex red along with horseradish peroxidase were added to the perfusate for detection of ROS production. Aliquots of perfusate were analyzed at intervals by spectrophotometry to determine oxidation of amplex red, indicating ROS production. Results are mean±SE for N=3-4. FIG. 5B: Mice were sacrificed at 6, 12, or 24 h after LPS administration ([…]) and lungs were perfused in situ for 15 min with saline solution containing a fluorophore (difluorofluorescein diacetate, DFFDA). Lungs then were homogenized and fluorescence of the lung homogenate was determined as an index of ROS production. Results for FIG. 5A & FIG. 5B are mean±SE for N=4. *P<0.05 vs corresponding LPS and LPS+PIP-2; § P<0.05 vs 12 h and 24 h LPS; ΔP<0.05 vs corresponding LPS.
# FIG. 8: PLA2 inhibitory peptide (PIP-2) inhibits ROS production stimulated by angiotensin II (Ang II) in isolated perfused mouse lung. PIP-2 (2 μg/g body weight) was administered to intact wild type (WT) mice by the IV route. […] After 30 mins, lungs were isolated from anesthesized mice and perfused in a recirculating system with added Ang II ([…]) as a Nox2 activator and Amplex red plus horseradish peroxidase to detect perfusate ROS. WT basal lungs were not stimulated with Ang II. After a 15 min equilibration period (called zero time), aliquots were taken at 15 min intervals for analysis of fluorescence. Each plotted point represents the mean±SE for n=3. The lines were drawn by the least mean squares method. The mean rates of ROS […] calculated from the slope of each line are indicated in parentheses. *P<0.05 vs the other 3 slopes.
# FIG. 10: Effect of liposome composition on delivery of PIP-2 to lungs after IV administration. […]
# The effect of the PIPs on ROS production in control (untreated) lungs was determined in vitro with isolated perfused lungs. […] The basal rate of ROS production was evaluated with WT lungs that were perfused in the absence of AngII. […] Aliquots of perfusate were taken at 15 min intervals and analyzed by fluorescence for resorufin (λexcitation 568 nm, λemission 581 nm), the product of Amplex red oxidation. The rate of Amplex red oxidation was calculated and expressed as arbitrary fluorescence units (AFU) with normalization to mouse body wt. There was a low rate of Amplex red oxidation in the absence of HRP in the perfusate (˜7% of the AngII-stimulated fluorescence), indicating a non-ROS-mediated oxidation of the fluorophore; this value was subtracted to obtain the reported values.
# Prdx6 = target: T2, Prdx6 (Mus musculus, UniProt O08709); experiment: aiPLA2 (Prdx6-PLA2) activity of mouse lung homogenate after IT or IV injection of PIP; assay type: in vivo; details: Table 6
# T2 construct: from tissue; host or cells: mouse lung homogenate (wild type mice)
# T2 sequence (O08709 1-224): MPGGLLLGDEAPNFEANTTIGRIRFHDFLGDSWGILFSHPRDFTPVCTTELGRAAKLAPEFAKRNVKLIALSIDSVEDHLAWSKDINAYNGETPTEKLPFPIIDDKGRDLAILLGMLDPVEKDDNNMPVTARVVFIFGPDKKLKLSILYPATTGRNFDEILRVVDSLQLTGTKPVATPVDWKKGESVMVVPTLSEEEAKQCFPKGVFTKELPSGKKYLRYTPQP
# Method: FIG. 6: PIP-2 in liposomes was administered to mice either intratracheally (IT) or intravenously (IV) at 0 time. Lungs were harvested at intervals between 4 and 72 h after the PIP-2 administration, homogenized, and analyzed for Prdx6-PLA2 activity. PIP-2 is effective by either the IT or IV route with a calculated ½ time for recovery of ˜50 h. Results are mean+SE for N=3-4.
# PIP-2 in liposomes injected IV or IT inhibits Prdx6 activity of the lung homogenate. Maximal inhibition was seen within 4 hours after administration of PIP-2. Recovery from inhibition began at ˜36 hours and was complete by 48 hours. Results are similar for PIP-1,2,4 (PIP-3 and -5 were not tested). […] Effectiveness requires liposomes for peptide delivery. Inhibition after IT or IV administration was similar.
# [1] = system: mouse models of LPS-induced ALI; details: previous studies; cited from earlier work
Molecule,aiPLA2 activity of recombinant hPrdx6 (recombinant hPrdx6),aiPLA2 activity of human recombinant Prdx6 (recombinant hPrdx6),other results
QTELYEIKHQIL (Inhibitory peptide.) [SEQ ID NO: 11],31.5 nmol/min/mg prot.,,
LRFDHHQIL [SN020],,98.97 nmol/min/mg prot.,
ELQTELYEIKHQIL (Inhibitory peptide.) [SEQ ID NO: 10],33.2 nmol/min/mg prot.,,
LHDFRDQIL [SN024],,102.04 nmol/min/mg prot.,
LYDIRHQIL (Inhibitory peptide.) [PIP-5],,29.74 nmol/min/mg prot.,ROS production by AngII-activated NOX2 in the isolated mouse lung (NOX2): inhibit ROS production
TLHDFRHQIL (Inhibitory peptide.) [SEQ ID NO: 19],,,aiPLA2 activity of human recombinant protein (recombinant hPrdx6): 31.5 nmol/min/mg prot.
IKHQIL (DEELQTELYEIKHQ; Inhibitory peptide.) [SEQ ID NO: 14],97.1 nmol/min/mg prot.,,
"DEELQATLHDFRHQIL (Inhibitory peptide.) [PIP-1, 16 residue human peptide]",45.0 nmol/min/mg prot.,,"Prdx6-PLA2 activity of mouse lung homogenate (Prdx6; IT, lungs lavaged prior to assay, 0 post injection): 9.0 ± 0.2 nmol/hr/mg protein; Prdx6-PLA2 activity of mouse lung homogenate (Prdx6; IT, lungs lavaged, 4 hr post injection): 1.6 ± 0.1 nmol/hr/mg protein; Prdx6-PLA2 activity of mouse lung homogenate (Prdx6; IT, lungs lavaged, 12 hr post injection): 1.6 ± 0.1 nmol/hr/mg protein; Prdx6-PLA2 activity of mouse lung homogenate (Prdx6; IT, lungs lavaged, 24 hr post injection): 1.7 ± 0.2 nmol/hr/mg protein; Prdx6-PLA2 activity of mouse lung homogenate (Prdx6; IT, lungs lavaged, 48 hr post injection): 2.9 ± 0.2 nmol/hr/mg protein; Prdx6-PLA2 activity of mouse lung homogenate (Prdx6; IV, 0 post injection): 8.8 ± 0.3 nmol/hr/mg protein; Prdx6-PLA2 activity of mouse lung homogenate (Prdx6; IV, 4 hr post injection): 1.4 nmol/hr/mg protein; Prdx6-PLA2 activity of mouse lung homogenate (Prdx6; IV, 12 hr post injection): 1.5 nmol/hr/mg protein; Prdx6-PLA2 activity of mouse lung homogenate (Prdx6; IV, 24 hr post injection): 1.8 ± 0.1 nmol/hr/mg protein"
LFKLEHQIL [SN023],,97.95 nmol/min/mg prot.,
ELYEIKHQIL (Inhibitory peptide.) [SEQ ID NO: 12],28.6 nmol/min/mg prot.,,
YEIKHQIL (Inhibitory peptide.) [SEQ ID NO: 13],94.4 nmol/min/mg prot.,,
LKIEYHQIL [SN019],,97.67 nmol/min/mg prot.,
TLHDFRHQI (Inhibitory peptide.) [SEQ ID NO: 20],,,aiPLA2 activity of human recombinant protein (recombinant hPrdx6): 89.6 nmol/min/mg prot.
DEELQTELYEIKHQ (Inhibitory peptide.) [SEQ ID NO: 15],102 nmol/min/mg prot.,,
LHEFKHQIL [SN022],,99.42 nmol/min/mg prot.,
LHDFRHQLL (LHDFRHQTL; Inhibitory peptide.) [SN028],,102.45 nmol/min/mg prot.,
ELYEIKHQI (Inhibitory peptide.) [SEQ ID NO: 22],,,aiPLA2 activity of human recombinant protein (recombinant hPrdx6): 93.5 nmol/min/mg prot.
DEELQTELYEI (Inhibitory peptide.) [SEQ ID NO: 17],94.9 nmol/min/mg prot.,,
LHDFRPQIL [SN025],,101.34 nmol/min/mg prot.,
"DEELQTELYEIKHQIL (Inhibitory peptide.) [PIP-3, 16 residue rat, mouse peptide]",32.0 nmol/min/mg prot.,,aiPLA2 activity of recombinant hPrdx6 (recombinant hPrdx6; listed as SEQ ID NO: 9): 20.1 nmol/min/mg prot.; aiPLA2 activity of human recombinant protein (recombinant hPrdx6): 32.0 nmol/min/mg prot.
CCCCCCCCCCCCCCCCOCC(COCC(F)(F)F)OP(=O)(O)OC (centres unmarked) [MJ33],,,protection in LPS-induced ALI [1]: protection
DEELQTELYEIK (Inhibitory peptide.) [SEQ ID NO: 16],95.7 nmol/min/mg prot.,,
LYEIKHQI [SEQ ID NO: 23],,,aiPLA2 activity of human recombinant protein (recombinant hPrdx6): 92.1 nmol/min/mg prot.
LHDFRHNIL [SN026],,98.97 nmol/min/mg prot.,
DEELQTEL [SEQ ID NO: 18],93.6 nmol/min/mg prot.,,
LHDFRHQI [SEQ ID NO: 21],,,aiPLA2 activity of human recombinant protein (recombinant hPrdx6): 93.6 nmol/min/mg prot.
